Consider 5 molecules from patent US20060079445A1, “CaMKII/calcium channel binding-related compositions and methods” (priority 2004, published 2006).

The target of assay [1] is T1, autophosphorylated α-CaMKII / α1C amino acids 1581-1690 (Rattus norvegicus, UniProt P11275).
T1 construct: made in house; GST fusion proteins from bacterial lysates
Put plainly: GST pull down of autophosphorylated α-CaMKII with α1C aa 1581-1690, peptide competition. It is filed as binding. The settings on record: 40 μM peptide; 20 nM α-CaMKII. As for the experimental part: (B) Immunoblot with CBα2 after GST pull down of purified autophosphorylated α-CaMKII (20 nM), using α1C amino acids 1581-1690 fused to GST. Pull down assay performed in the presence of 40 μM of the indicated peptide or the peptide diluent DMSO. (C) Immunoblots with CBα2 or an anti-CaM antibody after a GST pull down assay, using α1C amino acids 1581-1690 (WT), a ^1644TVGKFY^1649→EEDAAA mutant (Mut6), or GST alone, of purified autophosphorylated CaMKII (left) or CaM (right). Top panels show a Ponceau stain of each fusion protein. […] Asterisk indicates p<0.001 for a one-way analysis of variance followed by a Dunnett's test to identify specific pair-wise differences between the means for Mut6 vs. wt and GST vs. wt, n=4-8. […] Top panels show a Ponceau stain of each fusion protein.
The binding reactions were accomplished in Tris binding buffer (50 mM Tris, 150 mM NaCl, 0.1% T-20 at pH 7.4 ml plus 0.1% BSA) containing 20 nM purified CaMKII. The total protein from the HEK293 cell lysates added to each binding reaction ranged from 9-22 μg, determined by normalizing for the amount of CaMKII activity (Singla et al., 2001). Pre-autophosphorylayion of CaMKII (purified and lysate) was accomplished at 4° C. for 5 min in Tris binding buffer plus 1 mM CaCl2, 5 μM CaM, 1 mM ATP, and 5 mM MgCl2 to restrict the sites of autophosphorylation to primarily Thr286 (Ikeda et al., 1991; Lai et al., 1987; Lou and Schulman, 1989). Final concentration of these components in the binding reaction (1:40) was 0.025 mM CaCl2, 0.125 μM CaM, 0.025 mM ATP, and 0.125 MM MgCl2. The binding reaction was rocked for 1 h at 4° C. and the beads extensively washed in Tris binding buffer (2-3× for 5 mins each). Immunoblots were performed multiple times with identical results and Ponceau staining was always performed to ensure equal loading and transfer. CaMKII binding was quantified using densiotometric measurement of band intensity using KODAK 1D Image Analysis Software (Eastman Kodak, Company). […]

The target in assay [2] is T2, cloned L-type channels (subunit α1C77) (Homo sapiens, UniProt Q13936).
T2 construct: expressed in transfected cells; host or cells: HEK293 stably transfected with α2-δ and β1C (HEKα2β1), transiently transfected with α1C77 and GFP
Put plainly: Check for use-dependence of diltiazem block of cloned L-type channels. It is filed as cell-based. The settings on record: 100 μM; same solutions and voltage protocol as granule cells. How it is done:
Dissociated cerebellar granule cells were prepared from 7-day old C57/BL6 mouse cerebella and grown in culture by a published protocol (Piedras-Renteria and Tsien, 1998; Randall and Tsien, 1995). The cerebellar granule cells were maintained in Minimal Essential Medium (Invitrogen) supplemented with 10% fetal bovine serum, glucose 5 mg/liter, transferrin 100 mg/liter, insulin 25 mg/liter, glutamine 300 mg/liter, and potassium chloride 20 mM. Cells were plated on Matrigel (Collaborative Biomedical Product) treated glass coverslips in 24-well chambers and maintained in a humidified, 37° C. incubator with […]/5% CO2. Cells were maintained for 6 to 9 days in culture prior to electrophysiological experiments. HEK293 cells stably transfected with the α2-δ and β1C subunits (HEKα2β1) were grown in Dulbecco's Modified Eagle's Medium containing 10% v/v calf serum, penicillin (100 units/ml), streptomycin (100 μg/ml), and kept under positive selection with Geneticin (400 μg/ml) while being maintained as described above. cDNAs encoding the α1C77 subunit (Zühlke and Reuter, 1998) and the green fluorescent protein were transiently transfected into HEKα2β1 cells by using the Lipofectamine2000 reagent (Invitrogen). Electrophysiological experiments were performed >24 hrs after transfection.

In assay [3] the test system is L-type Ca^2+ currents in cerebellar granule cells. Kind of assay: Patch-clamp of Ca2+-dependent facilitation of L-type currents in cerebellar granule cells. The note with it: 2 μM peptide in patch pipette; Ca^2+ charge carrier; train of five pulses; without peptide facilitation ~50%. Type of assay: cell-based, C57/BL6 mouse. How it is done:
Dissociated cerebellar granule cells were prepared from 7-day old C57/BL6 mouse cerebella and grown in culture by a published protocol (Piedras-Renteria and Tsien, 1998; Randall and Tsien, 1995). The cerebellar granule cells were maintained in Minimal Essential Medium (Invitrogen) supplemented with 10% fetal bovine serum, glucose 5 mg/liter, transferrin 100 mg/liter, insulin 25 mg/liter, glutamine 300 mg/liter, and potassium chloride 20 mM. Cells were plated on Matrigel (Collaborative Biomedical Product) treated glass coverslips in 24-well chambers and maintained in a humidified, 37° C. incubator with […]/5% CO2. Cells were maintained for 6 to 9 days in culture prior to electrophysiological experiments. […]
Cerebellar granule cells, identified on the basis of morphology and size, comprised >90% of the cells in the primary culture. […] Voltage-gated Ca^2+ and Ba^2+ currents were recorded from cells depolarized to 0 mV with five 20 ms pulses (50 ms interpulse interval) from a −90 mV holding potential. […]
A general note: The patch-clamp technique gives a direct electrical read-out from membranes.

T2 sequence (Q13936 1-2138 isoform Q13936-20): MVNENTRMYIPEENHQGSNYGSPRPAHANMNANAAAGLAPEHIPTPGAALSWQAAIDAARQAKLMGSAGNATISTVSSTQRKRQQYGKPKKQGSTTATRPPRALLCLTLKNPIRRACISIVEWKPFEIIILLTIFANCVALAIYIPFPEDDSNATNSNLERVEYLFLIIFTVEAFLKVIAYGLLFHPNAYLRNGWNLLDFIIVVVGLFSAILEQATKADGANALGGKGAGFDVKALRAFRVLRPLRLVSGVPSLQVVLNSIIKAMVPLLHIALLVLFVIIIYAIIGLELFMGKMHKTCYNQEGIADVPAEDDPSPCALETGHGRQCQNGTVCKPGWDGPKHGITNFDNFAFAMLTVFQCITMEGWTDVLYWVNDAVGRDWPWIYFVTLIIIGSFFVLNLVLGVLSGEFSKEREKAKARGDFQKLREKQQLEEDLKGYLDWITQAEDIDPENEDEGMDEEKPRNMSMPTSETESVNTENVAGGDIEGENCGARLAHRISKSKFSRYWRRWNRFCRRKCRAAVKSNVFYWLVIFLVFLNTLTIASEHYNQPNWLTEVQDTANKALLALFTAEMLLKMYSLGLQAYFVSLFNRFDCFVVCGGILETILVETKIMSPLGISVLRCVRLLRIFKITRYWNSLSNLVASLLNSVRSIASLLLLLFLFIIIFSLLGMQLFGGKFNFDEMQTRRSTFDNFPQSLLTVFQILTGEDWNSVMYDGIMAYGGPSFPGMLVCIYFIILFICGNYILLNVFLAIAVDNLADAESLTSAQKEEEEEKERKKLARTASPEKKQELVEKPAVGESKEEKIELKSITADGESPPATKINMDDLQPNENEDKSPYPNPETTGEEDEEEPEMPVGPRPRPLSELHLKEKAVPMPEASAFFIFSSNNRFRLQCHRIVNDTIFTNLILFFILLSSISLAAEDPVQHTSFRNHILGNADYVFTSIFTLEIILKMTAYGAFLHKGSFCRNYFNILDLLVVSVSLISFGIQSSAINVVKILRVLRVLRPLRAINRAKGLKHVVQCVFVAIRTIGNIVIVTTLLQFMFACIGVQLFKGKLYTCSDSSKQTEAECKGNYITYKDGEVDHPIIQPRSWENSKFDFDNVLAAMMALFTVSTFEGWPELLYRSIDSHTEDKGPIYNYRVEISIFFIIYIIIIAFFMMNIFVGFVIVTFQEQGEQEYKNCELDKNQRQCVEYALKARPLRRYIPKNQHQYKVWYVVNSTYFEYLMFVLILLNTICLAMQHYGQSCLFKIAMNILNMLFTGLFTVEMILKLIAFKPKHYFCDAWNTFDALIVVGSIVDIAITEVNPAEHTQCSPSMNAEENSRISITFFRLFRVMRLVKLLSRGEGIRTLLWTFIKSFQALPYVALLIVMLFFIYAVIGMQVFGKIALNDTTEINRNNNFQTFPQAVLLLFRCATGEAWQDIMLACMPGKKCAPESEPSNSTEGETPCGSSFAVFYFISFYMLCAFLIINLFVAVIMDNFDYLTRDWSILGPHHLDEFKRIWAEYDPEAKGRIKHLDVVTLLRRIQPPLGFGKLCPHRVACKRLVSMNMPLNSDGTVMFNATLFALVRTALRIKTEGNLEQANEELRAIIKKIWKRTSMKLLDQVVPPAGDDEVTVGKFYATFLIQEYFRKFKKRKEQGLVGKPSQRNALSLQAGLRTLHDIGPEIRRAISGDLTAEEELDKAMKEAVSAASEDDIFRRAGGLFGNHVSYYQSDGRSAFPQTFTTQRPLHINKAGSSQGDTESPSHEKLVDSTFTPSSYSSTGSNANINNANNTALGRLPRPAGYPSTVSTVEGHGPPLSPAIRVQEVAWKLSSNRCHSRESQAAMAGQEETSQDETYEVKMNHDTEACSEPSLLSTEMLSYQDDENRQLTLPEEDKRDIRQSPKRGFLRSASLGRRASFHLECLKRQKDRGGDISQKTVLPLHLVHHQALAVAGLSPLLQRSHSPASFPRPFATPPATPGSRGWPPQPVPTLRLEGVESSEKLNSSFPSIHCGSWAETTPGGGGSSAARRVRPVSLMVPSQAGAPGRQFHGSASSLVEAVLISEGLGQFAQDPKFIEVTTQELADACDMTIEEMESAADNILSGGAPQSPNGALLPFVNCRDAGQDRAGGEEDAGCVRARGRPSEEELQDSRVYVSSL
T2 sequence (Q02641 whole entry partner): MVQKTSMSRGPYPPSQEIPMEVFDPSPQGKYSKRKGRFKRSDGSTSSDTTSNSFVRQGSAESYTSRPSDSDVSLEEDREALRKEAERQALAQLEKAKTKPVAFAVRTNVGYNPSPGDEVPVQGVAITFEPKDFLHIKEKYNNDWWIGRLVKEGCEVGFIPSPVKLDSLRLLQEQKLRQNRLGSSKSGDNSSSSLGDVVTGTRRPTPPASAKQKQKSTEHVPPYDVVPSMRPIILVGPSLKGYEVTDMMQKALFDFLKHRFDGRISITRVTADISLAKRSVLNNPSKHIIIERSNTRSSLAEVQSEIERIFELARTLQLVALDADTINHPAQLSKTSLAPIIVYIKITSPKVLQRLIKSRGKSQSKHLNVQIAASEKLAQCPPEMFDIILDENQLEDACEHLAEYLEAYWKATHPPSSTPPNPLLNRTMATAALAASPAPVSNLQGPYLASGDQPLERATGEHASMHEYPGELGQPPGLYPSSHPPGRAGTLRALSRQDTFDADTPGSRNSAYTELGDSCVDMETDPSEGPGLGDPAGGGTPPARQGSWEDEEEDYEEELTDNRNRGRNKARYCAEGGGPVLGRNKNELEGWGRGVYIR
T2 sequence (P54289 25-946 partner limits assumed): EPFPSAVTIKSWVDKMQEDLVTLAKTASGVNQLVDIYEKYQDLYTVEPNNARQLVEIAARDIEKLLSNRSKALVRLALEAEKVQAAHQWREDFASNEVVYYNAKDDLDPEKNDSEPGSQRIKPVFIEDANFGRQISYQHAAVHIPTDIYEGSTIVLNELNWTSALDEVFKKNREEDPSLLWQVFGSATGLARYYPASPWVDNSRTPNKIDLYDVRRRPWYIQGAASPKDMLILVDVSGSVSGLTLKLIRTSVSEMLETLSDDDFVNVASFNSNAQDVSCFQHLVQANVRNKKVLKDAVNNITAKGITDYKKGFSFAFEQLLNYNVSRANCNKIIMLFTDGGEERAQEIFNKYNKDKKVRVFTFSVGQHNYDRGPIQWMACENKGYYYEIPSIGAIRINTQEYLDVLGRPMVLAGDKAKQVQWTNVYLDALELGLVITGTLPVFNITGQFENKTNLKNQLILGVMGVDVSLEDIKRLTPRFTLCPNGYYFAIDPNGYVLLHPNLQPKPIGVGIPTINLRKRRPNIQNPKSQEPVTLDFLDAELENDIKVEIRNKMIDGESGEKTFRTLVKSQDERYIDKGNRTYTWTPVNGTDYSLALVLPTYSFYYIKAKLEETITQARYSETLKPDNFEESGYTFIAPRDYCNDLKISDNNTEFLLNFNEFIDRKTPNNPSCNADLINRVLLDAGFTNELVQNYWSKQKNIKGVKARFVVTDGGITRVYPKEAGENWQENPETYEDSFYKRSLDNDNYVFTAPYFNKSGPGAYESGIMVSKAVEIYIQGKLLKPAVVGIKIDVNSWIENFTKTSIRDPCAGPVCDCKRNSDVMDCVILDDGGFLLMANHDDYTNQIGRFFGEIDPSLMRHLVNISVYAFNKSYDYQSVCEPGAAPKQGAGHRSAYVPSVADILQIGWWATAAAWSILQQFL
T2 sequence (P54289 947-1103 partner limits assumed): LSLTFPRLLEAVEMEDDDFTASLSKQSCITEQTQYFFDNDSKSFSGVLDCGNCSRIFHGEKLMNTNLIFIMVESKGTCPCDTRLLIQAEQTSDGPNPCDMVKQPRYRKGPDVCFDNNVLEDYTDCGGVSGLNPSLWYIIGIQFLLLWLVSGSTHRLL

As to “1589-1610: ~22 aa peptide of α1C residues 1589-1610, site important for tethering of apoCaM (KRLVSMNMPLNSDGTVMFNATL; UniProt Q13936 1589-1610, looked up, fragment)”, the “interaction of autophosphorylated CaMKII with the 1581-1690 fusion protein” value (shortened to “interaction of autophosphorylated CaMKII”) in assay [1] was “not inhibited”.

On to “1615-1636: ~22 aa peptide of α1C residues 1615-1636, site important for tethering of apoCaM (RTALRIKTEGNLEQANEELRAI; UniProt Q13936 1615-1636, looked up, fragment)”, for which the “interaction of autophosphorylated CaMKII” value in assay [1] was “not inhibited”.

Turning to “1639-1660: ~22 aa peptide generated from α1C residues 1639-1660, contains TVGKFY (KIWKRTSMKLLDQVVPPAGDDE; UniProt Q13936 1639-1660, looked up, fragment)”, in assay [1], the “interaction of autophosphorylated CaMKII” value was “dramatically reduced”.

For `COc1ccc([C@@H]2Sc3ccccc3N(CCN(C)C)C(=O)[C@@H]2OC(C)=O)cc1` [diltiazem], in assay [2], the “use-dependence of block of calcium currents” value was “none were found”.

In the case of “KKALRRQEAVDAL [autocamtide-2-related inhibitory peptide]”, in assay [3], the “decrease in peak L-type current over the course of the depolarizing pulse train” value was about 25%.
